According to patent US20230295336A1 (INHIBRX, published 2023):

B1: cx5952 (bispecific antibody)
chain 1: EVQLVESGGGEVQPGGSLRLSCAASGFSFSSNVMMWVRQAPGKGLEWVSTIYSSGTGTFYAESVKGRFTISRDNAKNTLYLQMSSLRPEDTAVYYCATSGPVRGWGPRSQGTLVTVKPPGGGGDKTHTCPPCPAPGGPSVFLFPPKPKDTLMISRTPEVTCVVVDVSHEDPEVKFNWYVDGVEVHNAKTKPREEQYNSTYRVVSVLTVLHQDWLNGKEYKCKVSNKALPAPIEKTISKAKGQPREPQVYTLPPCRDELTKNQVSLWCLVKGFYPSDIAVEWESNGQPENNYKTTPPVLDSDGSFFLYSKLTVDKSRWQQGNVFSCSVMHEALHNHYTQKSLSLSPGGGGGGSGGGGGSGGGGGSEVQLVESGGGLVQPGGSLRLSCAASGFTFNTYAMNWVRQAPGKCLEWVARIRSKYNNYATYYADSVKGRFTISRDDAKNTLYLQMSSLRAEDTAVYYCVRHGNFGNSYVSWFAYWGQGTLVTVKPGGGGEVQLVESGGGEVQPGGSLRLSCAASGFTFSSYHMSWFRQAPGKQRELVATSHHGGTTNYAGSVKGRFTISRDNAKNTVYLQMNTLRAEDTAVYYCKADHGYQGRGYWGQGTLVTVKP
chain 2: DKTHTCPPCPAPGGPSVFLFPPKPKDTLMISRTPEVTCVVVDVSHEDPEVKFNWYVDGVEVHNAKTKPREEQYNSTYRVVSVLTVLHQDWLNGKEYKCKVSNKALPAPIEKTISKAKGQPREPQVCTLPPSRDELTKNQVSLSCAVKGFYPSDIAVEWESNGQPENNYKTTPPVLDSDGSFFLVSKLTVDKSRWQQGNVFSCSVMHEALHNRYTQKSLSLSPGGGGGGSGGGGGSGGGGGSQAVVTQEPSLTVSPGGTVTLTCGSSTGAVTTSNYANWVQQKPGQAFRGLIGGTNKRAPGVPARFSGSLLGGKAALTISGAQPEDEADYYCALWYSNHWVFGCGTKLEIK
notes: Heterodimer of chain 1 and chain 2; anti-CD3 Fv disulfide-stabilized (VH G44C / VL G100C); also called B7H3-targeting constrained CD3 engaging construct; sdAb-Fc-dsFV-sdAb
B2: cx6079 (bispecific antibody)
chain 1: EVQLVESGGGEVQPGGSLRLSCAASGFSFSSNVMMWVRQAPGKGLEWVSTIYSSGTGTFYAESVKGRFTISRDNAKNTLYLQMSSLRPEDTAVYYCATSGPVRGWGPRSQGTLVTVKPPGGGGDKTHTCPPCPAPPVAGPSVFLFPPKPKDTLMISRTPEVTCVVVDVKHEDPEVKFNWYVDGVEVHNAKTKPREEEYNSTYRVVSVLTVLHQDWLNGKEYKCKVSNKALPAPIEKTISKAKGQPREPQVYTLPPSREEMTKNQVSLTCDVSGFYPSDIAVEWESDGQPENNYKTTPPVLDSDGSFFLYSKLTVDKSRWEQGDVFSCSVMHEALHNHYTQKSLSLSPGKGGGGSGGGGSGGGGSEVQLVESGGGLVQPGGSLRLSCAASGFTFSTYAMNWVRQAPGKGLEWVGRIRSKYNNYATYYADSVKGRFTISRDDSKNTLYLQMNSLRAEDTAVYYCVRHGNFGDSYVSWFAYWGQGTLVTVSS
chain 2: EVQLVESGGGEVQPGGSLRLSCAASGFSFSSNVMMWVRQAPGKGLEWVSTIYSSGTGTFYAESVKGRFTISRDNAKNTLYLQMSSLRPEDTAVYYCATSGPVRGWGPRSQGTLVTVKPPGGGGDKTHTCPPCPAPPVAGPSVFLFPPKPKDTLMISRTPEVTCVVVDVKHEDPEVKFNWYVDGVEVHNAKTKPREEQYNSTYRVVSVLTVLHQDWLNGKEYKCKVSNKALPAPIEKTISKAKGQPREPQVYTLPPSREQMTKNQVKLTCLVKGFYPSDIAVEWESNGQPENNYKTTPPVLDSDGSFFLYSKLTVDKSRWQQGNVFSCSVMHEALHNHYTQKSLSLSPGKGGGGSGGGGSGGGGSQAVVTQEPSLTVSPGGTVTLTCGSSTGAVTTSNYANWVQQKPGKSPRGLIGGTNKRAPGVPARFSGSLLGGKAALTISGAQPEDEADYYCALWYSNHWVFGGGTKLTVL
notes: Heterodimer of chain 1 and chain 2; anti-CD3 Fv not disulfide-stabilized; two identical B7H3 sdAbs, both N-terminal to the Fc; also called B7H3-targeting constrained CD3 engaging construct; sdAb-Fc-FV

Legend:
[1] = molecular target: T1, CD3 on the surface of primary T cells (human, UniProt P07766 23-207); test: flow cytometry on isolated T cells
T1 construct: whole, on cells; CD3 is a multimeric complex (ε, γ, δ, ζ chains) with the TCR; In the reporter assays CD3 stood on Jurkat cells; also called CD3ε
Method: (§1) Binding of exemplary multispecific constructs containing an antigen-binding domain directed against B7H3 were assessed for binding to B7H3 positive A375 tumor cells or primary T-cells. The constructs were generated containing antigen-binding domain(s) that were either sdAbs or a FABs, and that were positioned either only N-terminal to the Fc or both N-terminal to the Fc and C-terminal to the anti-CD3 binding domain (see FIGS. 3A and 3C and Table E1.1). Among the various formats of constructs tested included: sdAb-Fc-dsFV-sdAb (cx3072, cx5952) sdAb-Fc-FV (cx6079), sdAb-Fc-dsFV (cs6080, cx6081), MAB-FV (cx5067) and MAB-dsFV (cx6083, cx6084), where the FV represents the anti-CD3 binding domain composed of VH and VL domain pairs and “ds” notes disulfide stabilized via an engineered interdomain disulfide bond.
(§2) Binding was assessed as described above via flow cytometry using a fluorophore-conjugated anti-human Fc secondary antibody. cx3072 bound to A375 cells with high affinity (FIG. 6A) but not to isolated T-cells (FIG. 6B). […]

[2] = molecular target: T2, B7H3 (CD276) (human, UniProt Q5ZPR3 29-534); test: flow cytometry on A375 cells
T2 construct: whole, on cells
T2 sequence (looked up): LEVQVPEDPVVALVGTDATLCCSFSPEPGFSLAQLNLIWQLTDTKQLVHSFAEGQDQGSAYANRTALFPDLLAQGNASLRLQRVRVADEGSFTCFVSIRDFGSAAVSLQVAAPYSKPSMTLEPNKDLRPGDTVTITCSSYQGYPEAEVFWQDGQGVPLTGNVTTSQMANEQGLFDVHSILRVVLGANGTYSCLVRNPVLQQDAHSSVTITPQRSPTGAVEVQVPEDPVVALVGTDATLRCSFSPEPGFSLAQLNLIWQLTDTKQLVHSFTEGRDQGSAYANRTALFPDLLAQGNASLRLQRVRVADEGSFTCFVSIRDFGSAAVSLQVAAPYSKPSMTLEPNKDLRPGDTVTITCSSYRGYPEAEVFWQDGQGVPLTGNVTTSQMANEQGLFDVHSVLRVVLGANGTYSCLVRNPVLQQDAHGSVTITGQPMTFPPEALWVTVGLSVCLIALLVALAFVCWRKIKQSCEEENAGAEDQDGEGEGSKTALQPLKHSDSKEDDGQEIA
Method: as §1, §2

T1 sequence (P07766 23-207): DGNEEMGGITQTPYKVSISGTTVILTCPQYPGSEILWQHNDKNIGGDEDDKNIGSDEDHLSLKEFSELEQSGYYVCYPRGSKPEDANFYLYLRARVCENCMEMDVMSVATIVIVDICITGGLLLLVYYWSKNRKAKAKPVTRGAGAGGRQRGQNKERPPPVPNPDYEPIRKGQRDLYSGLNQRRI

Row | Binder | binding result [1] | binding result [2]
1 | B1 | no binding | –
2 | B2 | no binding | binds
